# Experimental data published in the DeepSol protein solubility set.
# Test: soluble on expression in E. coli; label from the status in PepcDB or PDB records
row,Sequence,soluble on expression in E. coli
1,MQEGLVVVESCPRLGWAMESPENGTRQTAYEIEIREAFTGRSVWNSGKVTSSQSQLVPTEGADICLNNPFNYSWRVRVWDETDTPSEWSQEAKFRLASDDLSSGKWIGAITRKDSHLPEGRKFHGGELKKPEVKAAWEAVDTLAKKSICLRRTFQTGEAKGKNANRKSGKKIVEATAYVCGLGFYEFSLNGKKIGDSEFAPLWSDYDKSVYYNTYDVTEQLQDGENVVGILLGNGFYNVQGGRYRKLQISFGPPTLLFELVINYEDGTRETIRSDHEWKYDLSPITFNCIYGGEDYDARREQKGWNQVGFNDSHWRPVVVQEAPKGVLRSQMAPPVKIMERYDIQKVTKLNSEQVMAASKSTKRTVDPSAVVLDMGQNLAGFPEITVRGKRGQKVTLIVAEALMDEGACNQRQTGRQHYYEYTLKGEGDEIWHPRFSYYGFRYIQVEGAVLKGQKNPQKLPVLKNIQSCFIYNSAKKVSTFESSNRIFNAAHRLIEKAVRSNMQSVFTDCPHREKLGWLEQVHLNGPGLLYNYDLTAYAPQIMQNMADAQHPNGAMPTTAPEYVVFEGPGMDAFAESPEWGGSLVIFPFMYYETYGDDSLIKKYYQHMRRYTDYLKTRADNGILSFGLGDWYDYGDFRAGFSRNTPVPLVATAHYYMTVMYLIKAARMVGNEFDVRYYSSLAYDIMVAFNKRFLDSNTAQYGTGSQASNALPIFLQMIQSTGDKGDYTPDASLAAKVLTNLIKDVESHGNRLTTGDVGNRYLIQTLARNGQHELIYKMFNHEEAPGYGFQLKFGATTLTEQWDPRQGSSWNHFMMGQIDEWFFNSLIGIRPSTTLSASVNEKDEPMQGYQKFVIAPKPVGDLKYVKSTYETLYGTILVDWTRQSGTFTLNVSVPVNTTAIVYLPGEKEPKEVQSGTYKFVAAE,not soluble
2,VQLLESGPGVVKPSETLSLTCTVSGASVNNYYWTWVRQPPGKGLEWIGNVYDSGDTNYNPSLSSRLSLSMDTSKNQFSLRLSSVTAADTATYYCARYHRHFIRGPLSFDYWGRGTLVTVSSASTKGPSVFPLAPSSKSTSGGTSALGCLVKDYFPEPVTVSWNSGALTSGVHTFPAVLQSSGLYSLSSVVTVPSSSLGTQTYICNVNHKPSNTKVDKKVEPKSCDKTS,soluble
3,MSLINGSDPRYNFNVAPYPYCRLCKGHKHMCGLRVCPILERFQEVFPRLDLHGDISTSTPPSIFIGEYNYPSVYGGIMSVVDPERPYARRDMFDLGMPEIIERNANLFRNVKTVSVHNLSEKTVEQIQEAAMALNELRVESRIVGKEKHFDFFDSPVGPMYKSENIKVYGNAKTPRAAQDVIYDIDLNSTEALKILYMNSIDINYITGLLSGGLLGIEKKRKLVPTRWSITAVDDTISRYLKSDALNYESIDKPMVFSYSRFGNHFNIILLPRGTAFEMQEYWEIGSLWGSDGRVSIDFEGHHHHHH,soluble
4,MSTMSTPAAEQRKLVEQLMGRDFSFRHNRYSHQKRDLGLHDPKICKSYLVGECPYDLFQGTKQSLGKCPQMHLTKHKIQYEREVKQGKTFPEFEREYLAILSRFVNECNGQISVALQNLKHTAEERMKIQQVTEELDVLDVRIGLMGQEIDSLIRADEVSMGMLQSVKLQELISKRKEVAKRVRNITENVGQSAQQKLQVCEVCGAYLSRLDTDRRLADHFLGKIHLGYVKMREDYDRLMKNNRTTNASKTATTLPGRRFV,not soluble
5,MTYRELVERQLAVRHADLELGLSRAREQEPFVIHVSDLLDKAGIEYAVRMDKDFQTTFHLEYPITNYDTFKRAVWQTLGAYYCVCNDGDGLEIASNRPDGYAVRIVFGDVPV,not soluble
6,MAAAAKPNNLSLVVHGPGDLRLENYPIPEPGPNEVLLRMHSVGICGSDVHYWEYGRIGNFIVKKPMVLGHEASGTVEKVGSSVKHLKPGDRVAIEPGAPRENDEFCKMGRYNLSPSIFFCATPPDDGNLCRFYKHNAAFCYKLPDNVTFEEGALIEPLSVGIHACRRGGVTLGHKVLVCGAGPIGMVTLLVAKAMGAAQVVVTDLSATRLSKAKEIGADLVLQISKESPQEIARKVEGQLGCKPEVTIECTGAEASIQAGIYATRSGGTLVLVGLGSEMTTVPLLHAAIREVDIKGVFRYCNTWPVAISMLASKSVNVKPLVTHRFPLEKALEAFETFKKGLGLKIMLKCDPSDQNP,not soluble
7,MRTRNMQDFEGPLPDLLESALTWVKQNAPTQNVYDSSGHMRKESVYPLPAVRELIANALVHRDLSPNSDGKWVEIRLCDDRLVISNPGGLRGVSVKQLESATLSKNAVNPRLYDIAKRVRTEGAGIQEVLRQTCQALLAKPQLIDTGVQFTAILYGASVFSEAELEWLRSIGGDGLTAVEKHLLVGLRKGESWHLSRILNEFSPITVAEAEKLMHGLKKRGFIESDNKTFTLGAHSENQAPRVEKEETTLAKITKNAPTIAHALELKPEQSFEELLRTTGLSQGQLRFALDKLQAVGLVVREGGWGVHGTTYHWSAQT,not soluble
8,MGSDKIHHHHHHMDTDLLRAFVTVAECEGFSAAGKVLHRTQSAVSLQIKRLEDQMGESLFERTSRSVVLTPPGGRLLPYARHILKLQDEARRVMGVDRQGELIRLGTSEEQASTYLPELLPRFAARFPEVRLEVSCSISGSLVHDFQEGLLDVALVVRHGPTQTGRLLGREPMVWVVAEDRAIDDWEILPLALNPEGCIFRAHAFAALGPTERRWDVRYSSRSPTGINLPVQAGLAATVKTPRSVPEGCRIVGEEEGLPPLGHVEIEMHRTPGHSSDAFVAFCDELEHIVTATDSLESLEYVAAEG,not soluble
9,MGSDKIHHHHHHMKKPSQFDAIVVGAGPSGNAAAYTMARAGLKVLQIERGEYPGSKNVQGAILYAKALEEIIPDFRDDAPLERHIIEQRIWMLDDTSFVGTHMRSEEYNKPPYNRYTIIRAQFDKWFSSKVREAGALLICETTVKQLIMDGDQVVGVQCDREHGDVYADVVVLADGVNSTLARKAGFHGEIEAGNVALAVKEILFMPEETIRQRFNIGEDDGVVIEMVGRITDGMTGTGFLYTNKESLTIGVGCMLGDFKKNPNRTSPYVLLEKMKQHPSIAPLIAGGEMKEYCAHLIPEGGFHAIPRVYGNGWMIVGDSGGFVNAAHREGSNLAMTTGRLAAETVIHAKAAGLGYRAATLKAYKAALDQSFVMKDLHKYRDMPAVLHQNPQFFTTYPDLVARAARTMLTVDGKDKKSKEREIFSSFRKARSLAGMVGDAYKLLRAFR,not soluble
10,GSMSLNDFLSSVLPVSEQFEYLSLQSIPLETHAVVTPNKDDKRVPKSTIKTQHFFSLFHQGKVFFSLEVYVYVTLWDEADAERLIFVSKADTNGYCNTRVSVRDITKIILEFILSIDPNYYLQKVKPAIRSTCPREILTKICLFTRPASQYLFPDSSKNSKKHILNGEELMKWWGFILDRLLIECFQNDTQAKLRIPGEDPARVRSYLRGMKYPLWQVGDIFTSKENSLAVYNIPLFPDDPKARFIHQLAEEDRLLKVSLSSFWIELQERQEFKLSVTSSVMGISGYSLATPSLFPSSADVIVPKSRKQFRAIKKYITGEEYDTEEGAIEAFTNIRDFLLLRMATNLQSLTGKREHRERNQPVPASNINTLAITMLKPRKKAKALPKT,soluble
11,MLIRAMQKSDYEAVYKLWCEIKGFGIRSIDDSKENIENFLDRNPNLSVVAVIDEEIVGSILCGHDGRTGGFYHVCVHKDHRKKGIAHEMAKFCLEALKAQKINKIALIAFKNNDLGNEFWKHYGFTLREDANYYDLSLNEYNQTSFNA,not soluble
12,SFRKGKKRHSSSSSQSSEISTKSKSVDSSLGGLSRSSTVASLDTDSTKSSGQSNNNSDTCAEFRIKYVGAIEKLKLSEGKGLEGPLDLINYIDVAQQDGKLPFVPPEEEFIMGVSKYGIKVSTSDQYDVLHRHALYLIIRMVCYDDGLGVGKSLLALKTTDASNEEYSLWVYQCNSLEQAQAICKVLSTAFDSVLTSEKP,soluble
13,GPGSMEEGVDLREGLPEDVLAAVIAAPGQVTVEEARAQLNSSTSFRVDAGLVHLTADGAREQSQMETMLLKLATKIPPTGVSGAQFRAILEDEAPHFQPSAVGALSLKEAVQRYPRLFDVETDTTGKWFVRPAGVGKDGRASVGKNSGPISIINFCSERALMGNQADYVPLHVAMREESVASEGVLRDLVDSEELSKQLQIRFSVRLRPKRPVTNAFCFVDGDEIGLEAVDAIWKEMNLSDKSTRLVARQPTSRKHNSSDIVAPADMPTYAVVERKARELSLTQSVVLQDVIYMCSLRQFSLYADHIAKLNAFPDADVYVCCPSKVKLVAQKQFVPL,not soluble
14,MRIEAAELRILELPLKFRFETSFGVQTKRTILLLRLFGEGLEGLGEGVMERLPLYREETVAGARYLLEEVFLPRVLGRDLPNPEALREALAPFRGNPMAKAVLEMAFFDLWAKALGRPLWQVLGGVRQAVEVGVSLGIQPSVEDTLRVVERHLEEGYRRIKLKIKPGWDYEVLKAVREAFPEATLTADANSAYSLANLAQLKRLDELRLDYIEQPLAYDDLLDHAKLQRELSTPICLDESLTGAEKARKAIELGAGRVFNVKPARLGGHGESLRVHALAESAGIPLWMGGMLEAGVGRAHNLHLATLPGFTKPGDVSSASRYWEEDIVEEALEAKDGLMPVPEGVGIGVHLKLPFVERVTLWQRYMSAS,soluble
15,MSLGTFPAGVSADSVFVGLTIPLTGVFSGDGGDLKLGYELAIAQINAGSDIAQKWGLKGKGVLGRQIRHKVSDTEGKPNLDVQSATQFIQRDKAIMVSGSVSSSSAIALEELGSREKVLYMVGIAGSNDITGKNCQRYGFRSQQNAYMAAKGLAPVVAKALGKNIKMAFLVPDYTYGHSVYDSFSKFATEQGWKQVAKEVVPLGTTDYSSALLNIANSGADVFVNIAFGADSVASTKQAEQFGVLKRMKLVVPNLSSFQDKELGAELMQGVYGSCDFWFGLQDKFPLAKAFVDSFVAQNNYHPRWGAHIGYMQTYLWAMSVERANTFNPVDVIKVMENSKAQPYVTTIGNVYFRAEDHQMVRPIPILRGKKPSEMKHKEDFYDIIDLVDGEAVMNPPDLFGCKLGPYTEGHHHHHH,soluble
16,MAHHHHHHMASAVVAPPRGIKADPRASPNQGRRNGDGGRVLHAVPEEANKRRREREEAQHGAARYRGRNGQAVAELHGTARVKVNLVRRGTSKRRKGGRVGHLHHKPRRAPRPLAKHICPRALGETRISDGRPRPPQPRSDERHGSEGVVAVGAHVPYGSAPLRRRKHRNEAGRQQVRRVRHVRRLVPRVEGEVKPHVQLQRLTRRNHAHVPTQRGEADELGTLLHSNHVKVTAHRRGRRCRPKASARAAAGRERRRHARSRRSAPPAQVRRIDARRVAQKRSTHVHNRVIPDRSNAVRTRRGGRNDTLALRQHETHRRAAARGDLSVPHHNGAVGPHLHLRRQRVPRRHARRQRHIAVLNSHTLVPRAAVGARHAVHPDTRRQPCSRGV,not soluble
17,MGSDKIHHHHHHVVLAVVVGRRTASLALRGRGGRSKGGIHLPQNRIRFGSVGCRDLRSQLRRLIEDETMSEPAEAFYLPLGDNRYEPTRATESPWDSQAQHGGPPTALLGHLLDTAAGPDKRLARITADFLGAIPRRPFRVDTVEIRPGRRIALLEARMVFDDRPAVVARAWAIETGPTPPATGEQLHPPALADADPALDLTGWGYGEAIEWRYTRGGYGTADSAADVWTRVRIPLIAGEKLTGLARTLVVADSANGVSAALPMEHWLFIPPSITVTLARFPDTEWVHMACRSHLSPDGLGVSHATLSDTDGYLGEVSQPLLVRPR,not soluble
